Source: article PMC3646814, “Tetramerization Reinforces the Dimer Interface of MnSOD” (PLoS ONE, 2013)

What was measured:
[1] = molecular target: K184R, L185P CaMnSODc (Candida albicans)
[2] = molecular target: K184R, L185P CaMnSODc (Candida albicans); remark: listed apart in the source
[3] = molecular target: K184R, L185P CaMnSODc (Candida albicans); experiment: SEC; HPLC-SEC (TSK gel G2000SW), as-isolated proteins, 10 µM to 200 nM with respect to monomer, 10 mM potassium phosphate pH 6.7; Kd of the step dimer to monomers, from area integrals of the elution peaks
[4] = molecular target: K184R, L185P CaMnSODc (Candida albicans); remark: listed apart in the source
[5] = molecular target: K184R, L185P CaMnSODc (Candida albicans); experiment: crystal structure; hanging-drop vapor diffusion at 4°C, protein 7 mg/mL; methylated K182R, A183P ScMnSOD in 0.1 M tri-ammonium citrate pH 7, 20% PEG 3,350; unmodified K184R, L185P CaMnSODc in 2 M ammonium sulfate
[6] = molecular target: wild-type manganese superoxide dismutase from Candida albicans cytosol (Candida albicans); experiment: SEC; HPLC-SEC (TSK gel G2000SW), as-isolated proteins, 10 µM to 200 nM with respect to monomer, 10 mM potassium phosphate pH 6.7; Kd of the step dimer to monomers, from area integrals of the elution peaks
[7] = molecular target: the molecule itself; experiment: as above
[8] = molecular target: the molecule itself; experiment: crystal structure; hanging-drop vapor diffusion at 4°C, protein 7 mg/mL; methylated K182R, A183P ScMnSOD in 0.1 M tri-ammonium citrate pH 7, 20% PEG 3,350; unmodified K184R, L185P CaMnSODc in 2 M ammonium sulfate

Molecule: K184R, L185P CaMnSODc (enzyme)
- pK (the pH at which the SOD activity drops by 50%), pulse radiolysis [1]: 8 pH
- rate constant of O2^- dismutation by pulse radiolysis at 1 µM to 2.2 µM enzyme [2]: 9.9e+08 M⁻¹ s⁻¹
- Kd [3]: 2000 nM
- stoichiometry N [3]: 2
- SOD activity (pulse radiolysis) after heating at 41°C (% activity lost) [4]: 70
- stoichiometry N [5]: 4

Molecule: wild-type manganese superoxide dismutase from Candida albicans cytosol (enzyme)
- stoichiometry N [6]: 2

B1: wild-type manganese superoxide dismutase from Saccharomyces cerevisiae mitochondria (enzyme, S. cerevisiae, UniProt P00447 27-233, looked up)
chain: KVTLPDLKWDFGALEPYISGQINELHYTKHHQTYVNGFNTAVDQFQELSDLLAKEPSPANARKMIAIQQNIKFHGGGFTNHCLFWENLAPESQGGGEPPTGALAKAIDEQFGSLDELIKLTNTKLAGVQGSGWAFIVKNLSNGGKLDVVQTYNQDTVTGPLVPLVAIDAWEHAYYLQYQNKKADYFKAIWNVVNWKEASRRFDAGKI
notes: Manganese superoxide dismutase of S. cerevisiae mitochondria (ScMnSOD), expressed from a 2-kb genomic BamHI fragment containing the gene; As isolated, 0.70 Mn per monomer; also called ScMnSOD; WT ScMnSOD; source: S. cerevisiae sod2Δ strain (EG110), overexpressed from YEp352-ScMnSOD, purified
- stoichiometry N [7]: 4

B2: K182R, A183P ScMnSOD (enzyme, S. cerevisiae, UniProt P00447 27-233, looked up)
chain: KVTLPDLKWDFGALEPYISGQINELHYTKHHQTYVNGFNTAVDQFQELSDLLAKEPSPANARKMIAIQQNIKFHGGGFTNHCLFWENLAPESQGGGEPPTGALAKAIDEQFGSLDELIKLTNTKLAGVQGSGWAFIVKNLSNGGKLDVVQTYNQDTVTGPLVPLVAIDAWEHAYYLQYQNKRPDYFKAIWNVVNWKEASRRFDAGKI
notes: Manganese superoxide dismutase of S. cerevisiae mitochondria (ScMnSOD) with K182R and A183P; Unmethylated form used for HPLC-SEC; as isolated, 0.71 Mn per monomer; also called RP-mutant ScMnSOD; as-isolated K182R, A183P ScMnSOD; source: S. cerevisiae sod2Δ strain (EG110), overexpressed from YEp352-ScMnSOD (mutant), purified
- stoichiometry N [7]: 4

B3: methylated K182R, A183P ScMnSOD (enzyme, S. cerevisiae, UniProt P00447 27-233, looked up)
chain: KVTLPDLKWDFGALEPYISGQINELHYTKHHQTYVNGFNTAVDQFQELSDLLAKEPSPANARKMIAIQQNIKFHGGGFTNHCLFWENLAPESQGGGEPPTGALAKAIDEQFGSLDELIKLTNTKLAGVQGSGWAFIVKNLSNGGKLDVVQTYNQDTVTGPLVPLVAIDAWEHAYYLQYQNKRPDYFKAIWNVVNWKEASRRFDAGKI
modifications: all free amino groups of the lysine residues and the N-terminus methylated (reductive methylation, confirmed by mass spectrometry)
notes: Manganese superoxide dismutase of S. cerevisiae mitochondria (ScMnSOD) with K182R and A183P; The form that was crystallised; 0.71 Mn per monomer; theoretical mass of the methylated protein 23,589 Da; also called methylated RP-mutant ScMnSOD; source: S. cerevisiae sod2Δ strain (EG110), overexpressed, purified, then reductive methylation
- stoichiometry N [8]: 4
